Data on 1 substance can be found in patent US9403884B2, “Peptides useful as cell-penetrating peptides” (Evonik Roehm GmbH, priority 2005, dated 2016).

fluorescein = fluorescein label (fluorescent marker on the peptide)

Series [1] concerns HeLa cells. Put plainly: Cytotoxicity of hLF-peptide, cell viability by MTT test. The format is cell-based, human. The conditions noted are these: FIG. 6. As for the experimental part:
However, for live cell microscopy of peptide uptake mostly rather short incubation times of less than one hour were employed. It was therefore also tested whether for longer incubation times and higher concentrations, the peptide affected cell viability. HeLa cells were incubated with the hLF-peptide at concentrations ranging from 1.25 μM to up to 160 μM for either 6 or 0.5 hours. Afterwards cell viability was determined using an MTT test. The result thereof are depicted in FIG. 6.

Series [2] has as its system HeLa cells. Put plainly: Cytotoxic effects observed during the uptake experiments (flow cytometry, live cell microscopy). The format is cell-based, human. Conditions: concentration range of up to 40 μM, mostly incubation times of less than one hour.

As to “Fluo-KCFQWQRNMRKVRGPPVSCIKR-CONH2 (fluorescein-KCFQWQRNMRKVRGPPVSCIKR-NH2; cysteine pairing not given here; listed as Homo sapiens) [hLF-peptide]”, the “cell viability (MTT)” value is reported as “slightly reduced” in the series on HeLa cells [1] (after 6 hours, peptide concentrations higher than 5 μM) and “all cells were killed” with HeLa cells [1] (concentrations higher than 40 μM (tested up to 160 μM)). Moreover, the “cytotoxicity (MTT cell viability)” value in the series on HeLa cells [1] (incubated 30 minutes, concentrations up to 40 μM) is “no cytotoxicity was observed”. In addition, in the series on HeLa cells [2], the “cytotoxic effects in the uptake experiments” value is recorded as “no cytotoxic effects could be observed”.
